Results published in publication PMC8269367, “DNA G-Quadruplexes Contribute to CTCF Recruitment”.

T1: HMGB2 (Homo sapiens, UniProt P26583 1-209)
T1 sequence: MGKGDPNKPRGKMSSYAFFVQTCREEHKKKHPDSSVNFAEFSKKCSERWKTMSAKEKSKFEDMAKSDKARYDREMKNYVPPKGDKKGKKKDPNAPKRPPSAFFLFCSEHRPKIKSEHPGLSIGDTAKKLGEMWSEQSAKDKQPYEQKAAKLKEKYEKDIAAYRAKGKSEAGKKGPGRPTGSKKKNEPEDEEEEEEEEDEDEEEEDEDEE

T2: HMGN1 (Homo sapiens, UniProt P05114 1-100)
T2 sequence: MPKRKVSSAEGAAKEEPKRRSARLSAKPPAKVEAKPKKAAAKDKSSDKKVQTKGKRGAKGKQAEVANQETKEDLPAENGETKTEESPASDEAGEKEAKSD


Tests used:
[1] = target: T1, HMGB2; experiment: MST; MST, 50 nM labelled protein, 0.61 nM-20 uM oligo, 140 mM potassium phosphate pH 7.2 (6.7 for i-motif N1-3; CTCF oligo CD at pH 6.7), 10 mM NaCl in oligo stocks, 22 C; conditions: protein: commercial; tags: His; mixed-topology G4
[2] = target: T2, HMGN1; experiment: as above; conditions: protein: commercial; tags: His; parallel G4, partly intermolecular
[3] = target: T2, HMGN1; experiment: MST; positive control; MST, 50 nM labelled protein, 0.61 nM-20 uM oligo, 140 mM potassium phosphate pH 7.2 (6.7 for i-motif N1-3; CTCF oligo CD at pH 6.7), 10 mM NaCl in oligo stocks, 22 C; conditions: protein: commercial; tags: His; parallel G4

Binder | Kd [1] [µM] | further results
GGGCCCTGGGAACGGGGAGGG (structured_DNA) [B2-M7] | 1.6 ± 0.6 | –
GGGAGAGGGAGAGGGAGAGGG (structured_DNA) [B2-M6] | 4 ± 2 | –
GGGGAGGGGGAGGGGGGAGGGAGGGGAGG (structured_DNA) [N1C-3 (N1-C3)] | – | Kd [2]: 0.2 ± 0.1 µM
GGTGACAGGGGTATGGGGAGGGG (structured_DNA) [CT1 (G4-2)] | – | Kd [3]: 1.6 ± 0.3 µM
